Laboratory results published in PMC5850324, “Interactions between the Hepatitis C Virus Nonstructural 2 Protein and Host Adaptor Proteins 1 and 4 Orchestrate Virus Release” (mBio, 2018).

B1: GLuc2-NS2 (hepatitis C virus nonstructural 2 protein, wild type) [hepatitis C virus (J6/JFH genome)] / GLuc1-tagged μ subunit of the AP-4 complex [not stated] (parent complex)
chain 1: YDASVHGQIGAALLVLITLFTLTPGYKTLLSRFLWWLCYLLTLAEAMVQEWAPPMQVRGGRDGIIWAVAIFCPGVVFDITKWLLAVLGPAYLLKGALTRVPYFVRAHALLRMCTMVRHLAGGRYVQMVLLALGRWTGTYIYDHLTPMSDWAANGLRDLAVAVEPIIFSPMEKKVIVWGAETAACGDILHGLPVSARLGREVLLGPADGYTSKGWSLL
chain 2: MISQFFILSSKGDPLIYKDFRGDSGGRDVAELFYRKLTGLPGDESPVVMHHHGRHFIHIRHSGLYLVVTTSENVSPFSLLELLSRLATLLGDYCGSLGEGTISRNVALVYELLDEVLDYGYVQTTSTEMLRNFIQTEAVVSKPFSLFDLSSVGLFGAETQQSKVAPSSAASRPVLSSRSDQSQKNEVFLDVVERLSVLIASNGSLLKVDVQGEIRLKSFLPSGSEMRIGLTEEFCVGKSELRGYGPGIRVDEVSFHSSVNLDEFESHRILRLQPPQGELTVMRYQLSDDLPSPLPFRLFPSVQWDRGSGRLQVYLKLRCDLLSKSQALNVRLHLPLPRGVVSLSQELSSPEQKAELAEGALRWDLPRVQGGSQLSGLFQMDVPGPPGPPSHGLSTSASPLGLGPASLSFELPRHTCSGLQVRFLRLAFRPCGNANPHKWVRHLSHSDAYVIRI

Variants of: B1
Assay: PCA (protein-fragment complementation assay); parent: 1; read off a plot

Variant	ratio to parent
chain 1 L216A	~0.56
chain 1 L203A	~0.62
chain 1 D207A	~0.6
chain 1 L217A	~0.52
chain 1 E200A	~1
chain 1 L202A	~0.57
